Source: patent US20210388110A1 (published 2021)
Substitutions are numbered along the chain they refer to. One block for each binder: values may come before it.

Key:
soluble human CD3ε chain [1] = molecular target: T1, soluble human CD3ε chain (human, UniProt P07766 23-126, limits assumed); assay: SPR (Biacore)
T1 construct: the text says soluble human CD3ε chain; also called human CD3 epsilon chain
T1 sequence (P07766 23-126 limits assumed): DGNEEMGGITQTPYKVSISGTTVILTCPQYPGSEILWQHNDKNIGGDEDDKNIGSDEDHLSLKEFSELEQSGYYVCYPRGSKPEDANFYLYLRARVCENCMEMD

soluble human CD3ε chain [2] = molecular target: T2, soluble human CD3ε chain (human, UniProt P07766 23-126, limits assumed); assay: SPR (Biacore), soluble human CD3ε chain
T2 construct: also called human CD3 epsilon chain
T2 sequence (P07766 23-126 limits assumed): as above

- Kd (soluble human CD3ε chain [1]): 143 nM
B1: hCE115HA-E22Hh//-Hi-Kn010G3/L0000-k0 (antibody, human IgG1, kappa, L234A L235A, N297A)
heavy: QVQLVESGGGVVQPGRSLRLSCAASGFTFSNAWMHWVRQAPGKGLEWVAQIKAKSNNYATYYAESVKGRFTISRDDSKNSLYLQMNSLKTEDTAVYYCRYVHYGAYYGVDAWGQGTTVTVSSASTKGPSVFPLAPSSKSTSGGTAALGCLVKDYFPEPVTVSWNSGALTSGVHTFPAVLQSSGLYSLSSVVTVPSSSLGTQTYICNVNHKPSNTKVDKKVEPKSCDKTHTCPPCPAPEAAGGPSVFLFPPKPKDTLMISRTPEVTCVVVDVSHEDPEVKFNWYVDGVEVHNAKTKPREEQYASTYRVVSVLTVLHQDWLNGKEYKCKVSNKALPAPIEKTISKAKGQPREPQVYTLPPSRCELTKNQVSLSCAVKGFYPSDIAVEWESNGQPENNYKTTPPVLDSDGSFFLVSKLTVDKSRWQQGNVFSCSVMHEALHNHYTQKSLSLSPDYKDDDDK
chain: EPKSSDKTHTCPPCPAPELLGGPSVFLFPPKPKDTLMISRTPEVTCVVVDVSHEDPEVKFNWYVDGVEVHNAKTKPREEQYNSTYRVVSVLTVLHQDWLNGKEYKCKVSNKALPAPIEKTISKAKGQPREPQVCTLPPSRDELTKNQVSLWCLVKGFYPSDIAVEWESNGQPENNYKTTPPVLDSDGSFFLYSKLTVDKSRWQQGNVFSCSVMHEALHNRYTQKSLSLSP
light: DIVMTQSPLSLPVTPGEPASISCRSSQSLVHSNRNTYLHWYQQKPGQAPRLLIYKVSNRFSGVPDRFSGSGSGTDFTLKISRVEAEDVGVYYCGQGTQVPYTFGQGTKLEIKRTVAAPSVFIFPPSDEQLKSGTASVVCLLNNFYPREAKVQWKVDNALQSGNSQESVTEQDSKDSTYSLSSTLTLSKADYEKHKVYACEVTHQGLSSPVTKSFNRGEC
notes: single-arm

- Kd (soluble human CD3ε chain [1]): 8.35 nM
B2: CE115HA179-G1dh//-Hi-Kn010G3/L0000-k0 (antibody, human IgG1, kappa)
heavy: not shown
chain: B1 chain
light: B1 light
notes: single-arm

- Kd (soluble human CD3ε chain [1]): 3.25 nM
B3: TR01H080-E22Hh/none-Hi-Kn010G3/L0000-k0 (antibody, human IgG1, kappa, L234A L235A, N297A)
heavy: QVQLVESGGGLVQPGRSLRLSCAASGFTFSNAWMHWVRQAPGKGLEWVAQIKDKSNNYATYYAESVKGRFTISRADSKNSIYLQMNSLKTEDTAVYYCRYVHYAAVRRRLSSYGVDIWGQGTTVTVSSASTKGPSVFPLAPSSKSTSGGTAALGCLVKDYFPEPVTVSWNSGALTSGVHTFPAVLQSSGLYSLSSVVTVPSSSLGTQTYICNVNHKPSNTKVDKKVEPKSCDKTHTCPPCPAPEAAGGPSVFLFPPKPKDTLMISRTPEVTCVVVDVSHEDPEVKFNWYVDGVEVHNAKTKPREEQYASTYRVVSVLTVLHQDWLNGKEYKCKVSNKALPAPIEKTISKAKGQPREPQVYTLPPSRCELTKNQVSLSCAVKGFYPSDIAVEWESNGQPENNYKTTPPVLDSDGSFFLVSKLTVDKSRWQQGNVFSCSVMHEALHNHYTQKSLSLSPDYKDDDDK
chain: B1 chain
light: B1 light
notes: single-arm

- Kd (soluble human CD3ε chain [1]): 6.12 nM
B4: TR01H077-E22Hh/none-Hi-Kn010G3/L0200-k0 (antibody, human IgG1, kappa, L234A L235A, N297A)
heavy: QVQLVESGGGLVQPGRSLRLSCAASGFTFSNAWMHWVRQAPGKGLEWVAQIKDKSNNYATYYAESVKGRFTISRADSKNSIYLQMNSLKTEDTAVYYCRYVHYAAAEMVRDDIWGQGTTVTVSSASTKGPSVFPLAPSSKSTSGGTAALGCLVKDYFPEPVTVSWNSGALTSGVHTFPAVLQSSGLYSLSSVVTVPSSSLGTQTYICNVNHKPSNTKVDKKVEPKSCDKTHTCPPCPAPEAAGGPSVFLFPPKPKDTLMISRTPEVTCVVVDVSHEDPEVKFNWYVDGVEVHNAKTKPREEQYASTYRVVSVLTVLHQDWLNGKEYKCKVSNKALPAPIEKTISKAKGQPREPQVYTLPPSRCELTKNQVSLSCAVKGFYPSDIAVEWESNGQPENNYKTTPPVLDSDGSFFLVSKLTVDKSRWQQGNVFSCSVMHEALHNHYTQKSLSLSPDYKDDDDK
chain: B1 chain
light: B1 light with S25P, L29P
notes: single-arm

- Kd (soluble human CD3ε chain [1]): 46.9 nM
B5: TR01H040-E22Hh/none-Hi-Kn010G3/L0000vk1-k0 (antibody, human IgG1, kappa, L234A L235A, N297A)
heavy: B1 heavy with V11L, A53D, N56Q, D75A, L81I, G104S, Y106S
chain: B1 chain
light: DIQMTQSPSSLSASVGDRVTITCRSSQSLVHSNRNTYLHWYQQKPGKAPKLLIYKVSNRFSGVPSRFSGSGSGTDFTFTISSLQPEDIATYYCGQGTQVPYTFGQGTKVEIKRTVAAPSVFIFPPSDEQLKSGTASVVCLLNNFYPREAKVQWKVDNALQSGNSQESVTEQDSKDSTYSLSSTLTLSKADYEKHKVYACEVTHQGLSSPVTKSFNRGEC
notes: single-arm

- Kd (soluble human CD3ε chain [1]): 57.6 nM
B6: rCE115H-G1dh//-Hi-Kn010G3/L0000-k0 (antibody, human IgG1, kappa)
heavy: not shown
chain: B1 chain
light: B1 light
notes: single-arm

- Kd (soluble human CD3ε chain [2]): 71.5 nM
B7: TR01H067-E22Hh/none-Hi-Kn010G3/L0000-k0 (antibody, human IgG1, kappa, L234A L235A, N297A)
heavy: B1 heavy with V11L, A53D, N56Q, G104A, Y106S
chain: B1 chain
light: B1 light
notes: one-arm antibody (single Fab) with Fab-less hinge-Fc chain Hi-Kn010G3

- Kd (soluble human CD3ε chain [2]): 73.4 nM
B8: TR01H015-E22Hh/none-Hi-Kn010G3/TR01L004-k0 (antibody, human IgG1, kappa, L234A L235A, N297A)
heavy: B1 heavy with V11L, A53G, D75A, L81I, G104S, Y106S, A111I
chain: B1 chain
light: B1 light with R24Q, S25A, Q27E, L109V, K112E
notes: as for B7

- Kd (soluble human CD3ε chain [2]): 108 nM
B9: TR01H024-E22Hh/none-Hi-Kn010G3/L0000-k0 (antibody, human IgG1, kappa, L234A L235A, N297A)
heavy: B1 heavy with V11L, R16G, A53G, N56Q, D75A, L81I, G104S, Y106S
chain: B1 chain
light: B1 light
notes: as for B7

- Kd (soluble human CD3ε chain [2]): 37.1 nM
B10: TR01H011-E22Hh/none-Hi-Kn010G3/L0000-k0 (antibody, human IgG1, kappa, L234A L235A, N297A)
heavy: B1 heavy with V11L, D75A, L81I, Y106S, A111I
chain: B1 chain
light: B1 light
notes: as for B7

- Kd (soluble human CD3ε chain [2]): 37.3 nM
B11: TR01H010-E22Hh/none-Hi-Kn010G3/L0000-k0 (antibody, human IgG1, kappa, L234A L235A, N297A)
heavy: B1 heavy with V11L, D75A, L81I, G104S, A111I
chain: B1 chain
light: B1 light
notes: as for B7

- Kd (soluble human CD3ε chain [2]): 143 nM
B12: CE115HA124-E22Hh//-Hi-Kn010G3/L0000-k0 (antibody, human IgG1, kappa, L234A L235A, N297A)
heavy: B1 heavy with K54L
chain: B1 chain
light: B1 light
notes: one-arm antibody (single Fab) with Fab-less hinge-Fc chain Hi-Kn010G3; label '//-Hi-Kn010G3' read as none-Hi-Kn010G3

- Kd (soluble human CD3ε chain [2]): 79.4 nM
B13: TR01H023-E22Hh/none-Hi-Kn010G3/L0000-k0 (antibody, human IgG1, kappa, L234A L235A, N297A)
heavy: B1 heavy with V11L, R16G, A53G, N56Q, D75A, L81I, G104S, Y106S, A111I
chain: B1 chain
light: B1 light
notes: as for B7

- Kd (soluble human CD3ε chain [2]): 31.5 nM
B14: TR01H009-E22Hh/none-Hi-Kn010G3/L0000-k0 (antibody, human IgG1, kappa, L234A L235A, N297A)
heavy: B1 heavy with V11L, E64P, D75A, L81I, A111I
chain: B1 chain
light: B1 light
notes: as for B7

- Kd (soluble human CD3ε chain [2]): 42.2 nM
B15: TR01H008-E22Hh/none-Hi-Kn010G3/L0000-k0 (antibody, human IgG1, kappa, L234A L235A, N297A)
heavy: B1 heavy with V11L, A53G, D75A, L81I, A111I
chain: B1 chain
light: B1 light
notes: as for B7

- Kd (soluble human CD3ε chain [1]): 50.5 nM
B16: TR01H079-E22Hh/none-Hi-Kn010G3/L0000-k0 (antibody, human IgG1, kappa, L234A L235A, N297A)
heavy: B3 heavy with V106A, R107E, R108M, R109V, L110R, S111D
chain: B1 chain
light: B1 light
notes: single-arm

- Kd (soluble human CD3ε chain [2]): 71.4 nM
B17: TR01H015-E22Hh/none-Hi-Kn010G3/TR01L002-k0 (antibody, human IgG1, kappa, L234A L235A, N297A)
heavy: B1 heavy with V11L, A53G, D75A, L81I, G104S, Y106S, A111I
chain: B1 chain
light: B1 light with Q42L, A48S, R50Q
notes: as for B7

- Kd (soluble human CD3ε chain [2]): 135 nM
B18: TR01H004-E22Hh//-Hi-Kn010G3/L0000-k0 (antibody, human IgG1, kappa, L234A L235A, N297A)
heavy: B1 heavy with Y100R, G104Y, A105Y
chain: B1 chain
light: B1 light
notes: as for B12

- Kd (soluble human CD3ε chain [1]): 35.5 nM
B19: CE115HA177-G1dh//-Hi-Kn010G3/L0000-k0 (antibody, human IgG1, kappa)
heavy: not shown
chain: B1 chain
light: B1 light
notes: single-arm

- Kd (soluble human CD3ε chain [2]): 80.5 nM
B20: TR01H021-E22Hh/none-Hi-Kn010G3/L0000-k0 (antibody, human IgG1, kappa, L234A L235A, N297A)
heavy: B1 heavy with V11L, A53G, D75A, L81I, G104S, Y106S
chain: B1 chain
light: B1 light
notes: as for B7

- Kd (soluble human CD3ε chain [1]): 65 nM
B21: hCE115HA-G1dh//-Hi-Kn010G3/L0000-k0 (antibody, human IgG1, kappa)
heavy: not shown
chain: B1 chain
light: B1 light
notes: single-arm

- Kd (soluble human CD3ε chain [1]): 10.9 nM
B22: CE115HA178-G1dh//-Hi-Kn010G3/L0000-k0 (antibody, human IgG1, kappa)
heavy: not shown
chain: B1 chain
light: B1 light
notes: single-arm

- Kd (soluble human CD3ε chain [1]): 16.8 nM
B23: CE115HA180-G1dh//-Hi-Kn010G3/L0000-k0 (antibody, human IgG1, kappa)
heavy: not shown
chain: B1 chain
light: B1 light
notes: single-arm

- Kd (soluble human CD3ε chain [2]): 75.8 nM
B24: TR01H022-E22Hh/none-Hi-Kn010G3/L0000-k0 (antibody, human IgG1, kappa, L234A L235A, N297A)
heavy: B1 heavy with V11L, R16G, A53G, N56Q, E64P, D75A, L81I, G104S, Y106S, A111I
chain: B1 chain
light: B1 light
notes: as for B7
